Test results from patent US20070037861A1, “Enhanced method of treatment of growth disorders” (PFIZER HEALTH AB, priority 2003, published 2007).
Where two headings read alike, the source gives them in different places.

Assays:
GH receptors = molecular target: T1, GH receptors (Rattus norvegicus, UniProt P16310); details: cited from earlier work
T1 construct: host or cells: rat hepatocytes
T1 sequence (P16310 19-638): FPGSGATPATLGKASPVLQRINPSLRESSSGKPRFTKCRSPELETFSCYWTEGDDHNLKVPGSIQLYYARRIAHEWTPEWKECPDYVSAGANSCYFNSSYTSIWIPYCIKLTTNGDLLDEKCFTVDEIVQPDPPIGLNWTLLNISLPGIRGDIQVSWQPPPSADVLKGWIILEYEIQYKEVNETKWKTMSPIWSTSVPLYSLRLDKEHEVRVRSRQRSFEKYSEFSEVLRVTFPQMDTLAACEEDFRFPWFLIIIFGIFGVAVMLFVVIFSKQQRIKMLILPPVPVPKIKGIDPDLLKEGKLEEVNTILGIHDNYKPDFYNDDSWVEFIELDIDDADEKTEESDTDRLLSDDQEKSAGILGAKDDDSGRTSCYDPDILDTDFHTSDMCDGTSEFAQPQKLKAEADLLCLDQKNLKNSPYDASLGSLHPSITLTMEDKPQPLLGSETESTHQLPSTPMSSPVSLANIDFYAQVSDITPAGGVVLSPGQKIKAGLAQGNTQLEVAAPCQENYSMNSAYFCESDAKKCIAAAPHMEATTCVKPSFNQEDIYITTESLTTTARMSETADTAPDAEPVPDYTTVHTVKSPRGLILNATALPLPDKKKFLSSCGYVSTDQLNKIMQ

rat prolactin receptor = molecular target: T2, rat prolactin receptor (Rattus norvegicus, UniProt P05710); details: cited from earlier work
T2 construct: host or cells: rat hepatocytes
T2 sequence (P05710 20-310 isoform P05710-3 limits assumed): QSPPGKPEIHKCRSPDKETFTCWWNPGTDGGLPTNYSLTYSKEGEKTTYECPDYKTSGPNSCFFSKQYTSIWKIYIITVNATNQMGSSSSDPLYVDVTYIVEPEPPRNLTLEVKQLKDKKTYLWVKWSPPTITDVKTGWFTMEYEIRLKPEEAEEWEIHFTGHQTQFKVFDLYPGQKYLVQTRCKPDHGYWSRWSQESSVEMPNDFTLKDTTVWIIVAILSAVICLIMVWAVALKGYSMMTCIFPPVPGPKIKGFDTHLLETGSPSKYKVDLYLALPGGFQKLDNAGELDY

[1] = overnight administration; lean and obese nondiabetic subjects, impaired glucose tolerance or type 2 diabetes; cited from earlier work
[2] = by inhibition of lipolysis; cited from earlier work
[3] = animal model; without adverse effects on body weight and adipose tissue mass; cited from earlier work
plasma glucose = assay: Fasting plasma glucose; type: in vivo, Wistar rats; details: compared to controls
Procedure: (§1) Blood samples were collected following overnight fast. Samples were collected from the tail vein and at termination following decapitation under halothane anaesthetic. Blood samples were collected into heparinised tubes and centrifuged for harvesting of plasma. Blood samples were then analysed for insulin, glucose, FFAs, leptin, IGF-I, glycerol, triglycerides, cholesterol, corticosterone, markers of hepatic function (ALT, AST, ALP), and for markers of protein synthesis.
(§2) Plasma FFAs, triglycerides and glycerol were measured by diagnostic kit (Boehringer-Mannheim #1383175 and Sigma #337 respectively). Plasma leptin, insulin were measured using commercially available kits (inco, St Charles, Mo., US). Plasma IGF-I was measured by RIA as described previously (Vickers et al., 2000). Plasma glucose concentrations were measured using a colorimetric plate assay. All other plasma analytes (liver enzymes, electrolytes, etc.) were measured by a BM/Hitachi 737 analyser by Agriquality Laboratory Services (Auckland, New Zealand).

plasma triglycerides = assay: Plasma triglycerides; type: in vivo, Wistar rats; details: compared to saline controls
Procedure: as §1, §2

[4] = Systolic blood pressure by tail cuff plethysmography; type: in vivo, Wistar rats; details: SGA offspring
Procedure: Systolic and diastolic blood pressure and heart rate were recorded by tail cuff plethysmography according to the manufacturer's instructions (Blood pressure analyser IITC, Life Science, Woodland Hills, Calif., USA). Rats were restrained in a clear plastic tube in a heated room (25-28° C.). After 10-15 minutes acclimatisation the cuff was placed on the tail and inflated to 240 mmHg. Pulses were recorded during deflation at a rate of 3 mmHg/sec and reappearance of a pulse was used to determine systolic blood pressure. A minimum of 3 clear systolic blood pressure recordings were taken per animal. Previous observations indicate that the coefficient of variation for repeated measurements is <5%.

plasma IGF-I = assay: Plasma IGF-I by RIA; type: in vivo, Wistar rats; details: compared to saline controls; AD and SGA animals; at time of sacrifice
Procedure: as §1, §2

plasma leptin = assay: Plasma leptin; type: in vivo, Wistar rats; details: compared to saline animals and animals that received GH and fibrate
Procedure: as §1, §2

[5] = Tissue studies: organ and fat depot weights at termination; type: in vivo, Wistar rats
Procedure: At termination animals were sacrificed by decapitation under halothane anaesthesia. Tissues (heart, liver, muscle and adipose (subcutaneous and visceral)) were collected, weighed and snap frozen in liquid nitrogen for subsequent analysis. An aliquot of liver tissue was also frozen at −20° C. for examining the growth hormone receptor using ligand-binding analysis.

[6] = Blood hematocrit (marker of plasma volume / fluid retention); type: in vivo, Wistar rats; details: compared to saline; AD and SGA groups
Excerpt: A well-characterised effect of GH treatment is increased plasma volume (Johannsson et al, 2002). Decrease in blood hematocrit is a reliable marker of increase in plasma volume associated with fluid retentive effects of GH therapy.

[7] = Tibial bone length, area and density by pQCT post-mortem; type: in vivo, Wistar rats; details: for Fisher's PLSD for TRABECULAR, Mean Diff.: effect: treatment, significance level 5%
Procedure: (§3) Body lengths (nose-anus and nose-tail) and bone length (tibial, femoral length) was assessed post-mortem using peripheral quantitative computed tomography (PQCT, Stratec) analysis. Bone density was also assessed via pQCT.
Tibias were stored in 10% neutral buffered formalin. Tissue was stripped from the bone and bone length, area and density (cortical and trabecular) was assessed using pQCT (Stratec). […] Tibial length was highly correlated with total body (nose-anus) length (FIG. 5).

[8] = Body lengths (nose-anus) post-mortem and BMI; type: in vivo, Wistar rats
Procedure: as §3
A BMI was calculated using: body weight/nose-anus length (cm)2. […] Due to the lack of lipolysis in the GH and acipimox treated animals compared to GH treated, alterations in BMI probably reflect an enhancement of liner growth above that of GH alone.

Molecule: hGH: human growth hormone, lactogenic and somatogenic in the rat
- binding to GH receptors (somatogenic binding sites) (GH receptors): binding to both prolactin receptors and GH receptors
- binding to prolactin receptor (lactogenic binding sites) (rat prolactin receptor): binding to both prolactin receptors and GH receptors

Molecule: Cc1cnc(C(=O)O)c[n+]1[O-] [acipimox, 5-methylpyrazinecarboxylic acid 4-oxide]
- insulin resistance [1]: reduce insulin resistance
- plasma FFA levels [1]: lower plasma FFA levels
- GH induced insulin resistance [2]: partially prevent

Molecule: CC(C)(Oc1ccc(C2CC2(Cl)Cl)cc1)C(=O)O (stereo not shown) [ciprofibrate]
- insulin resistance [3]: reduce insulin resistance

Molecule: CCCCCCCN(CCc1ccc(SC(C)(C)C(=O)O)cc1)C(=O)Nc1ccc(F)cc1F [GW9578]
- insulin resistance [3]: reduce insulin resistance

B1: GH: Recombinant bovine growth hormone, a pure somatogen in the rat, given subcutaneously at 5 mg/kg/day (protein, UniProt P01246 27-217, looked up)
Somatotropin: AFPAMSLSGLFANAVLRAQHLHQLAADTFKEFERTYIPEGQRYSIQNTQVAFCFSETIPAPTGKNEAQQKSDLELLRISLLLIQSWLGPLQFLSRVFTNSLVFGTSDRVYEKLKDLEEGILALMRELEDGTPRAGQILKQTYDKFDTNMRSDDALLKNYGLLSCFRKDLHKTETYLRVMKCRRFGEASCAF
- Fasting plasma glucose (plasma glucose): not significantly altered
- Plasma triglycerides (plasma triglycerides): no significant effect
- systolic blood pressure [4]: significantly reduced and normalised
- Plasma IGF-I (plasma IGF-I): significantly increased
- plasma leptin (plasma leptin): elevated
- Relative kidney weight ([5]; compared to saline controls): reduced
- retroperitoneal fat mass ([5]; compared to saline controls): significantly reduced
- Relative liver weight ([5]; relative to body weight, AD and SGA animals): no effect
- blood plasma hematocrit [6]: significantly reduced
- binding to prolactin receptor (lactogenic binding sites) (rat prolactin receptor): not a ligand
- Total bone density ([7]; pQCT): trend (p=0.056) towards to drop
- trabecular bone mass ([7]; pQCT, AD and SGA animals): significantly reduced
- Tibial length ([7]; pQCT, effect of treatment, AD and SGA): significantly increased
- Fisher's PLSD for TRABECULAR, Mean Diff. ([7]; versus GH/ACIP): −4.381
- Fisher's PLSD for TRABECULAR, Mean Diff. ([7]; versus GH/FIB): −10.613
- Fisher's PLSD for TRABECULAR, Mean Diff. ([7]; versus SALINE): −14.137
- BMI ([8]; compared to saline): not significantly different
- Nose anus lengths ([8]; post-mortem, effect of treatment): significantly increased
